B1: recombinant carbonic anhydrase: purified recombinant carbonic anhydrase (SEQ ID NO: 4) from strain Bacillus sp. P203 (protein)
chain: MRKTNVLLKSTMITTLLLSSTLLVTTPIYAHTETQQLSYKTLNDLLTEDGHSGWSYSGLTGPEYWGELNEDYKACSKGEEQSPIALQNEDIDNEKWSFDLDYEETEFSIENNGHTIQANVEGSSSNTLLLNDTEYNLVQFHFHSPSEHTLDDEYFEMEVHLVHQDEHANLAVLGVLIEEGEQNETLTDMWELMPGQQGEAAERITLNPSELVPSDLSTFQYDGSLTTPPCSEDVKWSVSDSTISLSPEQLEAFQDLYPNNYRPIQDLGNREVGFHY
modifications: Bacillus sp. P 203
notes: P203

Key:
[1] = biological target: recombinant carbonic anhydrase (SEQ ID NO: 4) from Bacillus sp. P203 (Alkalicoccobacillus plakortidis, UniProt A0ABT0XM38); settings: read-out: IC50, inhibition of recombinant carbonic anhydrase; purified recombinant enzyme from Bacillus sp. P203
Experimental: A standard assay contained 900 microliter of PNPA, 10 microliter of 300 mM Tris pH 7.5 and 90 microliter of carbonic anhydrase protein solution. After a pre-incubation for 5 min, the enzyme was added to the PNPA buffer mixture and the increase in absorbance (due to the hydrolysis of the substrate and release of p-nitrophenol) at 348 nm was monitored photometrically in a quartz cuvette over a period of 10 min. As a positive control for both activity assays, a solution of bovine carbonic anhydrase (Calbiochem, 1 mg per mL) may be used.
Enzyme was pre-incubated with 1 mM of the substances for 1 h on ice in a total volume of 50 micro liter before testing activity with 10 micro liter of the mixture with the Wilbur and Anderson, 1948 method. The control with no additives (water) was set to 100% activity. […] Instead activity with 25 micro molar concentration of the chemicals are given.

[2] = Temperature and storage stability of purified recombinant carbonic anhydrase (residual activity); format: physicochemical
Experimental: The carbonic anhydrase activity was determined according to Wilbur. […] 147-154. […] (see FIG. 2).

Chain of recombinant carbonic anhydrase (SEQ ID NO: 4) from Bacillus sp. P203 (A0ABT0XM38 entry or part of it): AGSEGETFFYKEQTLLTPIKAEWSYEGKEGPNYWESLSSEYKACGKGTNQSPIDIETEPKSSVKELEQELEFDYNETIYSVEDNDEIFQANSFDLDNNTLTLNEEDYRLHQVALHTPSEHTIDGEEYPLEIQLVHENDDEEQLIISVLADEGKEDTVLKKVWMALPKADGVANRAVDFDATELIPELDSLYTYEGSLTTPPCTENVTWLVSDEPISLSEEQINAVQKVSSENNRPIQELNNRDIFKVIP

Row | Molecule | IC50 [1] [µM] | activity remaining after storage ([2]; 4° C. in buffer F for a week) | effect of storage with DTT on stability ([2]; buffer F supplemented with 1 mM dithiothreitol (DTT)) | activity remaining after storage ([2]; room temperature (20° C.), buffer F) | stability at elevated temperature ([2]; temperatures over 37° C., tested 4-60° C. for 1 and 17 h (FIG. 2)) | activity remaining after storage ([2]; −20° C. for one week in buffer F)
1 | [N-]=[N+]=[N-] [azide] | 500 |  |  |  |  | 
2 | B1 |  | 97+/−4 % of original activity | stabilize the enzyme | 95+/−4 % of original activity | rapidly decreased | 99+/−4 % of original activity

Reference: US8119387B2, “Polypeptides of strain Bacillus sp. P203” (Novozymes A/S, priority 2005, dated 2012)
